Experimental data as given in paper PMC7858052, “Z-Ring-Associated Proteins Regulate Clustering of the Replication Terminus-Binding Protein ZapT in Caulobacter crescentus” (mBio, 2021).

How the values were obtained:
[1] = biological target: truncated variant of ZapT-His that lacks the C-terminal sensor domain (Caulobacter crescentus); experiment: SEC; Superdex 200 PC3.2/30; 25 mM Tris-HCl pH 7.5, 300 mM NaCl, 20% sucrose; 20 ul/min; fractions on SDS-15% PAGE, Coomassie; single proteins and mixtures (also His-ZauP + ZapT-His + ZapTΔC-His with ZapT-His as internal control)
[2] = biological target: the molecule itself; experiment: as above

| Molecule | stoichiometry N [1] | stoichiometry N [2] |
| --- | --- | --- |
| truncated variant of ZapT-His that lacks the C-terminal sensor domain (domain or fragment) | 2 |  |
| ZapA with an N-terminal hexahistidine-MBP tag (natural protein, Caulobacter crescentus, UniProt A0A0H3CCW6 1-108, looked up, ZapA, Z-ring-associated protein of Caulobacter crescentus NA1000, locus CCNA_03356; tagged protein printed as 56 kDa; primers NhisMBP-zapA-fwd/rev run from the start codon to the stop codon; also called His-ZapA; source: E. coli, purified (procedure in Text S1); not shown: His6-MBP, N-terminal, kept) MAQVTIQVNGRPYMVGCEDGQEPHLTELARLFDRQVRQVSQDVGQLGETRLFLMGALLLADELSDMKLRLAHANAEIARMQQEGTKAEIAAIRALDAAAERIEKLATE |  | 4 |
| ZauP with an N-terminal hexahistidine-SUMO tag (natural protein, Caulobacter crescentus, UniProt A0A0H3CD23 1-127, looked up, ZauP, functional ZapB homolog of Caulobacter crescentus NA1000, locus CCNA_03357; tagged protein printed as 26 kDa; primers Nhis-SUMO-zapB-P3/P4 run from the start codon to the stop codon; also called His-ZauP; source: E. coli, purified (procedure in Text S1); not shown: His6-SUMO, N-terminal, kept) MIPADSTALDLAVRRLERAVSQLEQRLAAKAAETQRALAAAATSAVALPLAVTEPSLFDDDERARLVADLEAAREREKALEEAGEQASVALGRAIAEIRAALGDESVANDLHAPGDDDDLFEDSEEA |  | 6 |
| ZapT with a C-terminal hexahistidine tag (natural protein, Caulobacter crescentus, UniProt A0A0H3C832 1-141, looked up, tagged protein printed as 21 kDa; the last residue of ZapT is printed as Gly141; also called ZapT-His; wild-type ZapT-His; source: E. coli, purified (procedure in Text S1); not shown: His6, C-terminal, kept) MAKGPNAFRTISEAAEELGVPQHVLRFWETKFSFIRPMKRAGGRRFYRPQDIAVLNGVRTLLHSEGLTIKGVQKLHRDHGLAHVIAAGLGSNGSASLEAEYDYAPRGKERPVGEETRDRLAFALADLTAIKSRLDGLLARG |  | 2 |
